# Data reported in US20170298096A1 (CANIMGUIDE THERAPEUTICS, published 2017).
# No end group written: not given here.
# T1: His-tagged P3028 (human, also: His-tag, terminus and sequence not given here)
# T1 construct: in solution at 0.5 ug/mL over the peptide cards; found with anti-His-tag antibody and rabbit anti-mouse peroxidase (rampo); also called PGE73; not shown: His-tag
# T1 peptide: VFDEFKPLVEEPQNLIK
# Target: T1, His-tagged P3028
# Experiment: PEPSCAN chip ELISA, His-P3028 in solution;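 note: score is the raw OD at 405 nm from peroxidase colour with ABTS, imaged by CCD camera before and after staining, with wells showing air bubbles set to zero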
row,RAMPO Score,Binder
1,443 rampo score,KKLWTFFVKLSLFTER [SEQ ID NO 302]
2,768 rampo score,KKLDTFFVKLQLFTER [SEQ ID NO 348]
3,411 rampo score,KKLDTFFLKLSLFTER [SEQ ID NO 328]
4,517 rampo score,KKLDTFTVKLSLFTER [SEQ ID NO 324]
5,744 rampo score,KKLDTFFVKLMLFTER [SEQ ID NO 346]
6,451 rampo score,KKLDTFFVKLNLFTER [SEQ ID NO 347]
7,497 rampo score,KKLDTPFVKLSLFTER [SEQ ID NO 317]
8,483 rampo score,KKLDTFFVKLSRFTER [SEQ ID NO 356]
9,651 rampo score,KKLDTFFVKLSQFTER [SEQ ID NO 355]
10,535 rampo score,KKLDTFFVKLHLFTER [SEQ ID NO 345]
11,427 rampo score,KKLDPFFVKLSLFTER [SEQ ID NO 307]
12,415 rampo score,KKLDTFFVKISLFTER [SEQ ID NO 335]
13,712 rampo score,KKLDTFMVKLSLFTER [SEQ ID NO 321]
14,436 rampo score,KKLDNFFVKLSLFTER [SEQ ID NO 306]
15,403 rampo score,KKLDTFFVKFSLFTER [SEQ ID NO 333]
16,470 rampo score,KKLDTFFVKQSLFTER [SEQ ID NO 339]
17,1050 rampo score,KKLDTFFVKLSLHTER [SEQ ID NO 364]
18,456 rampo score,KKLDTFFPKLSLFTER [SEQ ID NO 329]
19,374 rampo score,KKLDTFFVRLSLFTER [SEQ ID NO 331]
20,439 rampo score,KKLDTFFVKRSLFTER [SEQ ID NO 340]
21,545 rampo score,KKLDTFFVKLSVFTER [SEQ ID NO 359]
22,430 rampo score,KKLDRFFVKLSLFTER [SEQ ID NO 309]
23,399 rampo score,KKLDTFFVKTSLFTER [SEQ ID NO 342]
24,379 rampo score,KKLDTFFGKLSLFTER [SEQ ID NO 327]

row,RAMPO Score,Binder
1,382 rampo score,KKLDTFFVKYSLFTER [SEQ ID NO 344]
2,499 rampo score,KKLDTFFVKLSMFTER [SEQ ID NO 353]
3,511 rampo score,KKLDTFQVKLSLFTER [SEQ ID NO 322]
4,425 rampo score,KKLDYFFVKLSLFTER [SEQ ID NO 312]
5,495 rampo score,KKLDTFFVKGSLFTER [SEQ ID NO 334]
6,575 rampo score,KKLDTAFVKLSLFTER [SEQ ID NO 313]
7,635 rampo score,KKLDTFFVKLSLSTER [SEQ ID NO 372]
8,467 rampo score,KKLDTMFVKLSLFTER [SEQ ID NO 315]
9,418 rampo score,KKLDWFFVKLSLFTER [SEQ ID NO 311]
10,1190 rampo score,KKLDTFFVKLSLMTER [SEQ ID NO 367]
11,696 rampo score,KKLDTFFVKLSLPTER [SEQ ID NO 369]
12,481 rampo score,KKLDTTFVKLSLFTER [SEQ ID NO 318]
13,462 rampo score,KKLDTFFVKLSNFTER [SEQ ID NO 354]
14,468 rampo score,KKLDTFFVKLSLITER [SEQ ID NO 365]
15,531 rampo score,KKLDTFFVKLSLGTER [SEQ ID NO 363]
16,475 rampo score,KKLDMFFVKLSLFTER [SEQ ID NO 305]
17,456 rampo score,KKLDTFFVKLSIFTER [SEQ ID NO 352]
18,448 rampo score,KKLDTFFVKLSLLTER [SEQ ID NO 366]
19,862 rampo score,KKLDTFFVKLSLNTER [SEQ ID NO 368]
20,458 rampo score,KKLDSFFVKLSLFTER [SEQ ID NO 310]
21,422 rampo score,KKLYTFFVKLSLFTER [SEQ ID NO 303]
22,520 rampo score,KKLDTFFVKLTLFTER [SEQ ID NO 349]
23,478 rampo score,KKLDTFFVKLSSFTER [SEQ ID NO 357]
24,426 rampo score,KKLDTFFVKASLFTER [SEQ ID NO 332]

row,RAMPO Score,Binder
1,358 rampo score,KKLDTFFFKLSLFTER [SEQ ID NO 326]
2,547 rampo score,KKLDTVFVKLSLFTER [SEQ ID NO 319]
3,1140 rampo score,KKLDTFFVKLSLQTER [SEQ ID NO 370]
4,365 rampo score,KKLDTFFRKLSLFTER [SEQ ID NO 330]
5,460 rampo score,KKLDTFFVKMSLFTER [SEQ ID NO 336]
6,351 rampo score,KKLDTFFVKSSLFTER [SEQ ID NO 341]
7,535 rampo score,KKLDQFFVKLSLFTER [SEQ ID NO 308]
8,502 rampo score,KKLDTFFVKLSLRTER [SEQ ID NO 371]
9,658 rampo score,KKLDTFFVKVSLFTER [SEQ ID NO 343]
10,460 rampo score,KKLDTFFVKLSHFTER [SEQ ID NO 351]
11,436 rampo score,KKLDTFFVKPSLFTER [SEQ ID NO 338]
12,525 rampo score,KKLDTFFVKLSLATER [SEQ ID NO 361]
13,517 rampo score,KKLDTFLVKLSLFTER [SEQ ID NO 320]
14,449 rampo score,KKLDCFFVKLSLFTER [SEQ ID NO 304]
15,365 rampo score,KKLDTFFVKNSLFTER [SEQ ID NO 337]
16,462 rampo score,KKLDTFFVKLSAFTER [SEQ ID NO 350]
17,437 rampo score,KKLDTFFVKLSTFTER [SEQ ID NO 358]
18,466 rampo score,KKLDTIFVKLSLFTER [SEQ ID NO 314]
19,400 rampo score,KKLDTFFVKLSLCTER [SEQ ID NO 362]
20,700 rampo score,KKLDTFSVKLSLFTER [SEQ ID NO 323]
21,527 rampo score,KKLDTFVVKLSLFTER [SEQ ID NO 325]
22,446 rampo score,KKLDTNFVKLSLFTER [SEQ ID NO 316]
23,409 rampo score,KKLDTFFVKLSWFTER [SEQ ID NO 360]
